Like-named read-outs stand apart in the source and are kept apart here.
B1: ss A5 (ssDNA)
DNA: AAAAA
B2: ss 19-CA (ssDNA)
DNA: GTGTGGAAAATCTCTAGCA
B3: ss 21-GT (ssDNA)
DNA: GTGTGGAAAATCTCTAGCAGT
B4: ss GCAGT (ssDNA)
DNA: GCAGT

How the values were obtained:
Assay in all cases: SAXS titration
[1] = biological target: T1, HIV-1 integrase (IN), monomer E (HIV-1, UniProt P04585 1148-1435)
[2] = biological target: T1, HIV-1 integrase (IN), monomer E; remark: listed apart in the source
[3] = biological target: T1, HIV-1 integrase (IN), monomer E; remark: listed apart in the source

Row | Binder | Kd [1] | further results
1 | B1 | 2600 ± 400 nM | –
2 | B2 | – | Kd [2]: 30 ± 15 nM
3 | B3 | – | Kd [3]: 10.6 ± 10 nM
4 | B4 | 7100 ± 700 nM | –

Reference: article PMC1807944
